Measurements as given in patent publication US5445951A, “Regioselective enzymatic deacylation of sucrose esters in anhydrous organic media” (priority 1993, dated 1995).

Experiments:
[1] = Solubility in hydrophobic solvents; format: physicochemical; conditions: more hydrophobic solvents, e.g., hexane, cyclohexane, heptane, octane
[2] = SOP deacylation catalyzed by pH precipitated enzymes in diisopropyl ether; format: biochemical; conditions: for buffer pH (optimal pH for enzyme activity in anhydrous media): SOP deacylation; for SOP / SheptaP's / ShexaP's: diisopropyl ether, 24 hrs
Description: To increase the number and/or activities of enzymes active with SOP, pH precipitation experiments, as described for SOA, were undertaken.
(§1) The pH of commercial powdered enzymes was adjusted in the following way: The enzyme (3 g) was dissolved in 25 ml of an appropriate buffer and the pH adjusted with dilute NaOH or citric/phosphoric acid solution. Cold acetone (37.5 ml at -20° C.) was added and the precipitate collected on a medium porosity glass funnel and dried overnight at 2 millitorr. The protein pellet was ground to a fine powder and equilibrated at 4° C. over saturated aqueous potassium carbonate (RH: 43%) for 24 hrs.

[3] = SOP hydrolytic enzyme screen in heptane with n-butanol; format: biochemical; conditions: 24 hrs; for SheptaP's ([…]): HPLC peak […]; for SOP: residual SOP; for SheptaP's ([…]): HPLC peak 8.2 min
Description: To extend the scope and utility of this study, sucrose octapropionate was synthesized and used as substrate in enzyme catalyzed deacylation reactions. […] The hydrolytic enzymes were screened for their capability to deacylate SOP in heptane with n-butanol as the nucleophile. After 24 hrs incubation aliquots were analyzed by HPLC.
Enzyme screening for SOP deacylation in heptane. A scintillation vial was charged successively with 100 mg of powdered enzyme as received or prepared as described and 1.0 ml of 20 mM sucrose octapropionate (SOP) and 200 mM butanol dissolved in an organic solvent. Following a 5 sec sonication, the vial was incubated in a controlled-temperature shaker at 45° C. and 300 RPM for 24 hrs. A 200 μl aliquot of the reaction mixture was withdrawn and centrifuged. The supernatant was collected and 10 μl of this solution was analyzed by HPLC.

[4] = as obtained from supplier; cited from earlier work
[5] = Activity and regioselectivity of enzymes for SOA deacetylation; format: biochemical; conditions: for buffer pH (optimal pH for enzyme activity in anhydrous diisopropyl ether): SOA deacetylation; for % conv: total of all sucrose hepta and hexa acetates; for regioselectivity of SOA deacetylation: in words
Description: An important aspect of this work was to assign, unequivocally, the structures of all sucrose hepta-, hexa-, and pentaacetates obtained by enzymatic deacetylation of SOA. These structures were assigned by perdeuterioacetylation followed by ^1 H-NMR, as described by Rathbone E. B., Carbohydr. Res., 205,402 (1990).
HPLC analysis. Routine screening was performed on a Supelcosil LC-18-DB column (150×4.6 mm, 5μ) using an isocratic mode with either acetonitrile/water (35/65) or acetonitrile/water (60/40) as eluant for reactions involving sucrose octaacetate (SOA) and sucrose octapropionate (SOP), respectively. All flow rates were 1.0 ml/min with UV detection at 220 nm. To identify all products from SOA deacetylation, a gradient mode was employed using 15% to 35% acetonitrile in water over 40 minutes followed by 35/65 acetonitrile/water isocratic elution for 20 minutes. To screen nucleophiles for SOA deacetylation, an isocratic elution mode was employed using 30/70 acetonitrile/water for 16 min followed by a gradient from 30% to 35% acetonitrile in water over 5 min and finally isocratic elution using 35/65 acetonitrile/water for 16 min. To assess the enzyme regiochemistry for SOA deacetylation, an isocratic elution mode was employed using 25/75 acetonitrile/water for 55 minutes.
Identification of the Sucrose Hepta, Hexa or Pentaacetates Obtained Enzymatically. The fraction of sucrose hepta, hexa or pentaacetates were identified as follows. The compound(s) of interest was dissolved in 1.0 ml 99.0 atom % pyridine--d5 followed by addition of 1.0 ml 99 +atom % acetic anhydride--d6. The resulting solution was shaken at 45° C. and 300 RPM for several hours until TLC analysis (silica gel, 9/1 CHCl3 /MeOH) indicated complete reaction. The reaction mixture was evaporated in vacuo and the residue washed several times with water to remove residual pyridine-d5 and/or acetic anhydride-d6. The resulting oily solid was dissolved in 5 ml off chloroform and passed through Whatmann 12.5 cm 1 PS silicone treated filter paper to remove water.
as §1
(§2) Enzyme and Solvent Screening for SOA Deacetylation. A scintillation vial was charged successively with 100 mg of powdered enzyme as received or prepared as described and 1.0 ml of 20 mM sucrose octaacetate (SOA) dissolved in an organic solvent. Following a 5 sec sonication, the vial was incubated in a controlled-temperature shaker at 45° C. and 300 RPM for 24 hrs. A 200 μl aliquot of the reaction mixture was withdrawn and centrifuged. The supernatant was collected and evaporated under a stream of N2. The residue was reconstituted in 200 μl of acetonitrile and 10 μl of this solution was analyzed by HPLC.

[6] = SOA deacetylation catalyzed by pH precipitated enzymes in diisopropyl ether; format: biochemical; conditions: for buffer pH (optimal pH for enzyme activity in anhydrous solvents): SOA deacetylation; for SheptaAs / ShexaAs / SOA: diisopropyl ether, 24 hrs incubation, HPLC; for SOA: residual SOA
Description: A wide variety of hydrolytic enzymes were initially screened for their ability to regioselectively deacetylate SOA in organic solvents. […] Enzyme activity is dependent upon the presence of a minimum shell of water surrounding the enzyme. […] It is known that one way to improve the catalytic power of an enzyme in organic solvent is to use it in the right ionic state.
as §1, §2

[7] = HPLC sucrose heptaacetate peak height

| Molecule | buffer pH (optimal pH for enzyme activity in anhydrous media) [2] | SOP [2] | SheptaP's [2] | ShexaP's [2] | SheptaP's ([…]) [3] | SOP [3] | enzyme activity [4] | buffer pH (optimal pH for enzyme activity in anhydrous diisopropyl ether) [5] | % conv [5] | buffer pH (optimal pH for enzyme activity in anhydrous solvents) [6] | SheptaAs [6] | ShexaAs [6] | SOA [6] | further results |
| --- | --- | --- | --- | --- | --- | --- | --- | --- | --- | --- | --- | --- | --- | --- |
| CCC(=O)OC[C@H]1O[C@@](COC(=O)CC)(O[C@H]2O[C@H](COC(=O)CC)[C@@H](OC(=O)CC)[C@H](OC(=O)CC)[C@H]2OC(=O)CC)[C@@H](OC(=O)CC)[C@@H]1OC(=O)CC [SOP, sucrose octapropionate] |  |  |  |  |  |  |  |  |  |  |  |  |  | solubility versus SOA [1]: significantly enhanced solubility |
| chymotrypsin | 8.0 | 98.2% | 1.8% | 0% | 3.9 | 96.1% | 48 U/mg | 8.0 | < 6% | 8.0 | 2.5% | 0% | 97.5% |  |
| lipase type II: Sigma, porcine pancreas, 50 U/mg (protein, UniProt P00591 1-450, looked up) Pancreatic triacylglycerol …: SEVCFPRLGCFSDDAPWAGIVQRPLKILPWSPKDVDTRFLLYTNQNQNNYQELVADPSTITNSNFRMDRKTRFIIHGFIDKGEEDWLSNICKNLFKVESVNCICVDWKGGSRTGYTQASQNIRIVGAEVAYFVEVLKSSLGYSPSNVHVIGHSLGSHAAGEAGRRTNGTIERITGLDPAEPCFQGTPELVRLDPSDAKFVDVIHTDAAPIIPNLGFGMSQTVGHLDFFPNGGKQMPGCQKNILSQIVDIDGIWEGTRDFVACNHLRSYKYYADSILNPDGFAGFPCDSYNVFTANKCFPCPSEGCPQMGHYADRFPGKTNGVSQVFYLNTGDASNFARWRYKVSVTLSGKKVTGHILVSLFGNEGNSRQYEIYKGTLQPDNTHSDEFDSDVEVGDLQKVKFIWYNNNVINPTLPRVGASKITVERNDGKVYDFCSQETVREEVLLTLNPC | 7.0 | 96.5% | 3.5% | 0% | 1.7 | 98.1% | 50 U/mg | 7.0 | 14.1% | 7.0 | 13.5% | 0.6% | 85.9% | capability of deacetylating SOP ([2]; pH precipitated, in words): capable of deacetylating SOP; SheptaP's (9.2 min) ([3]; HPLC peak 9.2 min): 0.2; BuOpropionate ([3]; butyl propionate formed, peak area): 59 cAUs; regiochemistry 4'OH [5, 7]: 1; regiochemistry 6'OH [5, 7]: 1; regioselectivity of SOA deacetylation [5]: the primary deacetylation product is the 4'- OH heptaacetate; regioselectivity of SOA deacetylation ([5]; listed as Porcine pancreatic lipase): at the 4' position |
